Assays:
trypsin = target: T1, trypsin (Bos taurus, UniProt P00760); assay: Trypsin degradation assay; format: in vitro ADME
T1 sequence (P00760 24-246): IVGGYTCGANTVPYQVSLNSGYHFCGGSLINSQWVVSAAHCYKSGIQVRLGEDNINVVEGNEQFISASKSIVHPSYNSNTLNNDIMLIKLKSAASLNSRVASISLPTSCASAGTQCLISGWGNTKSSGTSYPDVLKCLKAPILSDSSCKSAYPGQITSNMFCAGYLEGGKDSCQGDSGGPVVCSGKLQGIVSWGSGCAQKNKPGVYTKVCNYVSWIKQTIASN

[1] = cited from earlier work

| Substance | degradation half-life compared to HI + free Prg-SFTI 7 (trypsin; enzyme/substrate ratio 1:2) [times] | degradation half-life compared to HI + free Prg-SFTI 7 (trypsin; enzyme/substrate ratio 1:4) | pKa of the lysine side-chain amine [1] | pKa of the two N-terminal amines (A1 and B1) [1] |
| --- | --- | --- | --- | --- |
| SFTI-Triazolyl-(GQAP)49-GQEP-Cys(B29Nε-Acetyl desB30 Human Insulin) (bicyclic or more) [insulin-SFTI 9] | 3 | twice as long | – | – |
| insulin | – | – | ~10 | ~7 |

Source: PMC7424725 (ACS Omega, 2020)
